For 167 variants, self-cleavage results are on record in the RNAGym collection of RNA variant scans (doi:10.1093/nar/gkz1192).

B1: CPEB3 Ribozyme (parent)
chain: UAACAGGGGGCCACAGCAGAAGCGUUCACGUCGCAGCCCCUGUCAGAUUCUGGUGAAUCUGCGAAUUCUGCUGUAUAUCUC

The variants in this data set derive from B1. In words: self-cleavage, relative activity (ratio to wild type); higher = more cleavage; in vitro, sequencing. Put shortly: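 Barcoded CPEB3 ribozyme mutants, produced by rounds of error-prone PCR, self-cleaved while being transcribed with T7 RNA polymerase for 5 hours at 37°C and during a subsequent 15 min DNase I step before EDTA was added. Sequencing of template-switched cDNA on Illumina gave cleaved and total reads, and DNA sequencing assigned barcodes to variants. Each variant's relative activity is its cleaved/total read fraction divided by the unmutated ribozyme's fraction, averaged across three batches. A variant needed a minimum of 5 reads.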
For the variant G30C, the self-cleavage is 0.28.

Regarding G30U, the self-cleavage worked out at 0.25.

Take G30A U66C: the self-cleavage is 0.32.

In the case of G30A U66A, the self-cleavage came out at 0.23.

For U31C G70C, the self-cleavage is 0.18.

As to U31C G70A, the self-cleavage stood at 0.25.

As for U31C C32U, the self-cleavage came out at 0.22.

Turning to U31C C32A, the self-cleavage was 0.31.

With G30A A57G, the self-cleavage came to 0.29.

Turning to G30U U51A, the self-cleavage is 0.11.

Consider G30U U51C, for which the self-cleavage stood at 0.16.

With U31A C81U, the self-cleavage stood at 0.58.

Regarding U31C A64G, the self-cleavage stood at 0.64.

In the case of U31C A64C, the self-cleavage was 0.14.

In the case of U31C A64U, the self-cleavage is 0.31.

G30C U31C: the self-cleavage is 0.26.

Turning to U31A G61C, the self-cleavage worked out at 0.24.

Consider U31A G61A, for which the self-cleavage was determined as 0.37.

With U31C A56G, the self-cleavage is 0.67.

For U31C A56U, the self-cleavage stood at 0.47.

For the variant G30A C40U, the self-cleavage stood at 0.54.

As to U31C C79A, the self-cleavage is 0.94.

For the variant U31C C79U, the self-cleavage came out at 1.1.

Consider U31A G36U, for which the self-cleavage stood at 0.1.

Turning to U31C A65G, the self-cleavage was found to be 0.35.

In the case of U31C A65U, the self-cleavage was found to be 0.25.

For G30A U76A, the self-cleavage was 0.13.

As to G30A U76C, the self-cleavage stood at 0.26.

With U31C G61C, the self-cleavage came out at 0.14.

For U31A U48G, the self-cleavage was 0.16.

For U31A U48C, the self-cleavage was determined as 0.29.

U31A U48A: the self-cleavage is 0.13.

As for G30C G73A, the self-cleavage stood at 0.11.

Turning to U31C A47C, the self-cleavage came to 0.31.

In the case of U31C A47G, the self-cleavage stood at 0.8.

With U31C A47U, the self-cleavage came out at 0.4.

In the case of U31A C44U, the self-cleavage came to 0.23.

For the variant G30C U76A, the self-cleavage was 0.17.

As for G30U U49A, the self-cleavage amounted to 0.35.

Regarding G30U U49C, the self-cleavage is 0.42.

As to U31A A65U, the self-cleavage stood at 0.37.

For the variant U31A A65G, the self-cleavage amounted to 0.36.

U31A G33U: the self-cleavage came out at 0.13.

U31A G33A: the self-cleavage was determined as 0.24.

G30A C71U: the self-cleavage worked out at 0.18.

Take U31C C38A: the self-cleavage stood at 0.33.

In the case of U31C C38G, the self-cleavage is 0.16.

Consider U31C C38U, for which the self-cleavage worked out at 0.98.

Consider U31A U60G, for which the self-cleavage was found to be 0.2.

For the variant U31A U60A, the self-cleavage was found to be 0.32.

As to U31A U60C, the self-cleavage is 0.25.

Turning to G30C U60A, the self-cleavage was found to be 0.13.

On to G30C U60C, for which the self-cleavage is 0.12.

Regarding U31C U74A, the self-cleavage is 1.18.

Regarding G30C U54A, the self-cleavage turned out to be 0.22.

G30A U48G: the self-cleavage came out at 0.14.

With G30A U48A, the self-cleavage was determined as 0.35.

On to G30A U48C, for which the self-cleavage amounted to 0.27.

Consider G30A G52A, for which the self-cleavage was found to be 0.21.

In the case of G30U U80C, the self-cleavage was 0.17.

Take U31C C81G: the self-cleavage turned out to be 0.55.

Turning to U31C C81U, the self-cleavage is 1.14.

For U31A U41C, the self-cleavage amounted to 0.51.

On to U31A U41G, for which the self-cleavage worked out at 0.29.

As to U31A U41A, the self-cleavage came out at 0.33.

For the variant U31A A56U, the self-cleavage stood at 0.39.

As to U31A A56G, the self-cleavage is 0.48.

Turning to G30U A64G, the self-cleavage is 0.23.

With G30U A47G, the self-cleavage was found to be 0.22.

For the variant G30A U41C, the self-cleavage worked out at 0.22.

As to G30A U41A, the self-cleavage was 0.14.

In the case of G30A U41G, the self-cleavage was found to be 0.4.

Take U31A U49A: the self-cleavage is 0.41.

U31A U49C: the self-cleavage is 0.22.

Consider G30C A56G, for which the self-cleavage turned out to be 0.16.

U31A G73C: the self-cleavage was 1.08.

Take U31A G73A: the self-cleavage stood at 1.04.

As for G30A G46A, the self-cleavage was found to be 0.15.

With G30C U72A, the self-cleavage turned out to be 0.13.

As to G30C U72G, the self-cleavage was 0.16.

In the case of U31C A57U, the self-cleavage worked out at 0.47.

On to U31C A57G, for which the self-cleavage stood at 0.75.

U31C A57C: the self-cleavage was determined as 0.49.

For the variant U31C C62U, the self-cleavage is 0.24.

In the case of U31C C62A, the self-cleavage is 0.23.

In the case of U31C C62G, the self-cleavage amounted to 0.14.

Turning to G30A U67C, the self-cleavage came out at 0.18.

For G30A U67A, the self-cleavage was 0.22.

Regarding G30U U72G, the self-cleavage came out at 0.15.

Take G30U U72C: the self-cleavage stood at 0.08.

On to G30U U72A, for which the self-cleavage worked out at 0.22.

Turning to G30A G73U, the self-cleavage was 0.46.

G30A A75G: the self-cleavage is 0.26.

Consider G30A U72C, for which the self-cleavage stood at 0.33.

On to G30A U72A, for which the self-cleavage came out at 0.2.

For the variant U31A A35G, the self-cleavage worked out at 1.25.

As for U31A A35U, the self-cleavage came to 0.3.

In the case of U31A A35C, the self-cleavage was found to be 0.27.

Regarding G30U A65G, the self-cleavage worked out at 0.25.

Turning to U31C U48C, the self-cleavage was determined as 0.37.

Turning to U31C U48A, the self-cleavage was found to be 0.39.

For U31A U58C, the self-cleavage came out at 0.36.

Turning to G30A U51G, the self-cleavage was 0.1.

In the case of G30A U51A, the self-cleavage is 0.15.

In the case of G30A A65G, the self-cleavage is 0.38.

For the variant U31C G46A, the self-cleavage turned out to be 0.15.

For the variant U31C G46U, the self-cleavage turned out to be 0.23.

As to U31C U51C, the self-cleavage was found to be 0.78.

For U31C U51A, the self-cleavage was determined as 0.89.

Regarding U31C U51G, the self-cleavage was 0.89.

In the case of U31C C59A, the self-cleavage came to 0.29.

On to U31C C59U, for which the self-cleavage turned out to be 0.54.

Turning to U31C U72G, the self-cleavage was 0.46.

Take U31C U72A: the self-cleavage stood at 0.5.

U31C U72C: the self-cleavage is 0.97.

Take U31C C44U: the self-cleavage is 0.26.

For the variant U31C C44G, the self-cleavage worked out at 0.31.

With U31C C44A, the self-cleavage was determined as 0.4.

As to G30A U31A, the self-cleavage is 0.32.

For G30A U31G, the self-cleavage turned out to be 0.21.

G30A U31C: the self-cleavage is 0.35.

In the case of U31A U80G, the self-cleavage came out at 0.55.

U31A U80A: the self-cleavage was 0.61.

U31A U80C: the self-cleavage is 0.66.

Turning to U31C U60A, the self-cleavage stood at 0.34.

For U31C U60C, the self-cleavage stood at 0.29.

For the variant U31C U60G, the self-cleavage stood at 0.15.

Consider G30U A45G, for which the self-cleavage was 0.28.

G30A A56G: the self-cleavage came to 0.37.

In the case of G30A A56U, the self-cleavage came to 0.37.

For U31A U67A, the self-cleavage is 0.34.

For the variant U31A U67C, the self-cleavage came out at 0.2.

For U31C G33A, the self-cleavage was 0.21.

On to U31C C71G, for which the self-cleavage amounted to 0.23.

Turning to U31C C71U, the self-cleavage came to 0.25.

With U31A C37U, the self-cleavage came out at 0.16.

On to U31A A47U, for which the self-cleavage came to 0.29.

Consider U31A A47G, for which the self-cleavage worked out at 0.54.

With G30C C40U, the self-cleavage turned out to be 0.23.

As for G30U G42A, the self-cleavage amounted to 0.23.

On to G30A U54C, for which the self-cleavage is 0.43.

Consider U31C G73A, for which the self-cleavage is 1.26.

Consider G30U C40U, for which the self-cleavage was found to be 0.2.

For G30A U69A, the self-cleavage is 0.23.

As to G30A U69C, the self-cleavage was determined as 0.33.

Regarding G30A U69G, the self-cleavage was 0.19.

Regarding U31C C39A, the self-cleavage was 0.18.

As to U31C G63A, the self-cleavage was determined as 0.67.

In the case of U31C G63U, the self-cleavage is 0.8.

As to U31C G36U, the self-cleavage worked out at 0.14.

On to U31C G36A, for which the self-cleavage is 0.13.

U31A G42C: the self-cleavage stood at 0.53.

Regarding U31A G42A, the self-cleavage was found to be 0.18.

Consider G30A U43C, for which the self-cleavage turned out to be 0.24.

In the case of G30A U43A, the self-cleavage was determined as 0.24.

G30U U66A: the self-cleavage amounted to 0.13.

For U31A G63A, the self-cleavage is 0.39.

Take G30C U43C: the self-cleavage was found to be 0.25.

On to U31A C34G, for which the self-cleavage came out at 0.2.

For the variant U31A C34U, the self-cleavage was determined as 0.23.

In the case of U31C C50U, the self-cleavage was 0.82.

For the variant U31C C50A, the self-cleavage was 0.67.

As to G30C U49C, the self-cleavage stood at 0.08.

U31A C68U: the self-cleavage was found to be 0.54.

Regarding G30A U49G, the self-cleavage was 0.22.

With G30A U49A, the self-cleavage was 0.1.

For G30A U49C, the self-cleavage is 0.16.
